In patent publication US20100003258A1:

Columns and labels:
Assay in all cases: cell-based or functional assay
[1] = biological target: human FGFR3 IIIb on FDCP-1 cells (FDCP-FGFR3 IIIb #122) (human), P22607
[2] = biological target: human FGFR3 IIIc G380R on FDCP-1 cells (FGFR3 IIIc G380R #1) (human), P22607
[3] = biological target: human FGFR3 IIIc on FDCP-1 cells (FDCP-FGFR3 IIIc #109) (human), P22607
[4] = biological target: FDCP-FGFR3 IIIb and FDCP-FGFR3 IIIc cell lines

Sequence of human FGFR3 IIIc G380R on FDCP-1 cells (FGFR3 IIIc G380R #1) (human), P22607 (P22607 23-806 G380R): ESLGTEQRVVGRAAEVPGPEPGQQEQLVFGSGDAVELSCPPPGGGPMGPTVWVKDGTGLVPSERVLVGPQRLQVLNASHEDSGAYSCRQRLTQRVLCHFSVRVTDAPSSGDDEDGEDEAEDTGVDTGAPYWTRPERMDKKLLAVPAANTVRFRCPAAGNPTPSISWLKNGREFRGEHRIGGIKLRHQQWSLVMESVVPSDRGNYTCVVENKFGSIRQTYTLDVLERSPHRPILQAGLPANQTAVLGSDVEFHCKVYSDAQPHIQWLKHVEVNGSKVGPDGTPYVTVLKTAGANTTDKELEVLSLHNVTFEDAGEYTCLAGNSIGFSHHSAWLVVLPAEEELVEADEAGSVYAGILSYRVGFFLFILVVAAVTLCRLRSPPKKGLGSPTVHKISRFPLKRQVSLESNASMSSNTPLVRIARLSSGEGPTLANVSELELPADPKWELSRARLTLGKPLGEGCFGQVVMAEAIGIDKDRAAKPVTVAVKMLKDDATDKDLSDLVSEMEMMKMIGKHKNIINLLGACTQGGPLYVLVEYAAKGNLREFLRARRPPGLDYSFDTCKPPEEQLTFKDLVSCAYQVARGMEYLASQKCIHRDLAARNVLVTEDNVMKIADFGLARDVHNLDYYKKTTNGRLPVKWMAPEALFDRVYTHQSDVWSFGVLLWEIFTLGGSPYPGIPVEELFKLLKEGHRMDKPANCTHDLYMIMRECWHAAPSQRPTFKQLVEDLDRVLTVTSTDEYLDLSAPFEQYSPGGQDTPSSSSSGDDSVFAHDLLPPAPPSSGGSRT
Sequence of human FGFR3 IIIc on FDCP-1 cells (FDCP-FGFR3 IIIc #109) (human), P22607 (P22607 23-806): as the sequence (P22607 23-806 G380R) above, with R358G counted along it
Sequence of human FGFR3 IIIb on FDCP-1 cells (FDCP-FGFR3 IIIb #122) (human), P22607 (P22607 23-806): as the sequence (P22607 23-806 G380R) above, with R358G counted along it

Binder	FDCP Proliferation IC50, FGFR3 IIIb [1] [pM]	FDCP Proliferation IC50, FGFR3 IIIc G380R [2] [pM]	FDCP Proliferation IC50, FGFR3 IIIc [3] [pM]	maximal inhibition of FGF1 induced proliferation of FDCP-FGFR3 cell lines [4] [%]
anti-FGFR3 monoclonal antibody 2G4 (antibody, mouse IgG1, kappa) heavy: EIQLQQSGPELVKPGASVKVSCKASGYAFTSYNMYWVKQSHGKSLEWIGYIDPYNGGTRDNQKFKGKATLTVDKSSSTAYMHLNSLTSEDSAVYYCAREGGNYEAWFAYWGQGTLVTVSAAKTTPPSVYPLAPGSAAQTNSMVTLGCLVKGYFPEPVTVTWNSGSLSSGVHTFPAVLQSDLYTLSSSVTVPSSTWPSETVTCNVAHPASSTKVDKKIVPRDCGCKPCICTVPEVSSVFIFPPKPKDVLTITLTPKVTCVVVDISKDDPEVQFSWFVDDVEVHTAQTQPREEQFNSTFRSVSELPIMHQDWLNGKEFKCRVNSAAFPAPIEKTISKTKGRPKAPQVYTIPPPKEQMAKDKVSLTCMITDFFPEDITVEWQWNGQPAENYKNTQPIMDTDGSYFVYSKLNVQKSNWEAGNTFTCSVLHEGLHNHHTEKSLSHSPGK light: QIVLTQSPALMSASPGEKVTMTCSASSSVSYMYWYQQKPRSSPKPWIYLTSNLASGVPARFSGSGSGTSYSLTISSMEAEDAATYYCQQWSSNPLTFGAGTKLELKRADAAPTVSIFPPSSEQLTSGGASVVCFLNNFYPKDINVKWKIDGSERQNGVLNSWTDQDSKDSTYSMSSTLTLTKDEYERHNSYTCEATHKTSTSPIVKSFNRNEC	630	11700	500	–
anti-FGFR3 monoclonal antibody 4E7 (antibody, mouse IgG1, kappa) heavy: EIQLQQSGPELVKPGASVKVSCKASGYAFTSYNMYWVKQSHGKSLEWIGYIDPYNGGTRYNQKFKGKATLTVDKSSSTAYMHLNSLTSEDSAVYYCAREGGNYEAWFAYWGQGTLVTVSAAKTTPPSVYPLAPGSAAQTNSMVTLGCLVKGYFPEPVTVTWNSGSLSSGVHTFPAVLQSDLYTLSSSVTVPSSTWPSETVTCNVAHPASSTKVDKKIVPRDCGCKPCICTVPEVSSVFIFPPKPKDVLTITLTPKVTCVVVDISKDDPEVQFSWFVDDVEVHTAQTQPREEQFNSTFRSVSELPIMHQDWLNGKEFKCRVNSAAFPAPIEKTISKTKGRPKAPQVYTIPPPKEQMAKDKVSLTCMITDFFPEDITVEWQWNGQPAENYKNTQPIMDTDGSYFVYSKLNVQKSNWEAGNTFTCSVLHEGLHNHHTEKSLSHSPGK light: QIVLTQSPALMSASPGEKVTMTCSASSSVSYMYWYQQKPRSSPKPWIYLTSNLASGVPARFSGSGSGTSYSLTISSMEAEDAATYYCQQWSSNPLTFGAGTKLELKRADAAPTVSIFPPSSEQLTSGGASVVCFLNNFYPKDINVKWKIDGSERQNGVLNSWTDQDSKDSTYSMSSTLTLTKDEYERHNSYTCEATHKTSTSPIVKSFNRNEC	900	3500	620	–

Results, then the binder that gave them:

FDCP Proliferation IC50, FGFR3 IIIb [1] [pM]	FDCP Proliferation IC50, FGFR3 IIIc G380R [2] [pM]	FDCP Proliferation IC50, FGFR3 IIIc [3] [pM]	maximal inhibition of FGF1 induced proliferation of FDCP-FGFR3 cell lines [4] [%]	Binder
140	3100	280	–	anti-FGFR3 monoclonal antibody 15D8 (antibody, mouse IgG1, kappa) heavy: EIQLQQSGPELVKPGASVKVSCKASGYAFTSYNMYWVKQSHGKSLEWIGYIDPYNGGTSYNQKFKGKATLTVDKSSSTAYMHLNSLTSEDSAVYYCAREGGNYEAWFAYWGQGTLVTVSAAKTTPPSVYPLAPGSAAQTNSMVTLGCLVKGYFPEPVTVTWNSGSLSSGVHTFPAVLQSDLYTLSSSVTVPSSTWPSETVTCNVAHPASSTKVDKKIVPRDCGCKPCICTVPEVSSVFIFPPKPKDVLTITLTPKVTCVVVDISKDDPEVQFSWFVDDVEVHTAQTQPREEQFNSTFRSVSELPIMHQDWLNGKEFKCRVNSAAFPAPIEKTISKTKGRPKAPQVYTIPPPKEQMAKDKVSLTCMITDFFPEDITVEWQWNGQPAENYKNTQPIMDTDGSYFVYSKLNVQKSNWEAGNTFTCSVLHEGLHNHHTEKSLSHSPGK light: QIVLTQSPALMSASPGEKVTMTCSASSSVSYMYWYQQKPRSSPKPWIYLTSYLASGVPARFSGSGSGTSYSLTISSMEAEDAATYYCQQWSSYPLTFGAGTKLELKRADAAPTVSIFPPSSEQLTSGGASVVCFLNNFYPKDINVKWKIDGSERQNGVLNSWTDQDSKDSTYSMSSTLTLTKDEYERHNSYTCEATHKTSTSPIVKSFNRNEC
560	8800	590	–	anti-FGFR3 monoclonal antibody 27H2 (antibody, mouse IgG1, kappa) heavy: EIQLQQSGPELVKPGASVKVSCKASGYAFTSYNMYWVKQSHGKSLEWIGYIDPYNGGTRYNQKFKGKATMTVDKSSSTAYMHLNSLTSEDSAVYYCAREGGNYEAWFAYWGQGTLVTVSAAKTTPPSVYPLAPGSAAQTNSMVTLGCLVKGYFPEPVTVTWNSGSLSSGVHTFPAVLQSDLYTLSSSVTVPSSTWPSETVTCNVAHPASSTKVDKKIVPRDCGCKPCICTVPEVSSVFIFPPKPKDVLTITLTPKVTCVVVDISKDDPEVQFSWFVDDVEVHTAQTQPREEQFNSTFRSVSELPIMHQDWLNGKEFKCRVNSAAFPAPIEKTISKTKGRPKAPQVYTIPPPKEQMAKDKVSLTCMITDFFPEDITVEWQWNGQPAENYKNTQPIMDTDGSYFVYSKLNVQKSNWEAGNTFTCSVLHEGLHNHHTEKSLSHSPGK light: QIVLTQSPALMSASPGEKVTMTCSASSSVSYMYWYQQKPRSSPKPWIYLTSNLASGVPARFSGSGSGTSYSLTISSMEAEDAATYYCQQWSSNPLTFGAGTKLELKRADAAPTVSIFPPSSEQLTSGGASVVCFLNNFYPKDINVKWKIDGSERQNGVLNSWTDQDSKDSTYSMSSTLTLTKDEYERHNSYTCEATHKTSTSPIVKSFNRNEC
1510	–	102000	40	anti-FGFR3 monoclonal antibody 20B4 (antibody, mouse IgG1, kappa) heavy: EIQLQQSGPELVKPGASVKVSCKASGYSLTDYNMYWVKQSHGKSLEWIGYIDPYNGGTSYNQKFKGKATLTVDKSSSTAFMHLNSLTSEDSAVYYCARSLGPDFDYWGQGTTLTVSSAKTTPPSVYPLAPGSAAQTNSMVTLGCLVKGYFPEPVTVTWNSGSLSSGVHTFPAVLQSDLYTLSSSVTVPSSTWPSETVTCNVAHPASSTKVDKKIVPRDCGCKPCICTVPEVSSVFIFPPKPKDVLTITLTPKVTCVVVDISKDDPEVQFSWFVDDVEVHTAQTQPREEQFNSTFRSVSELPIMHQDWLNGKEFKCRVNSAAFPAPIEKTISKTKGRPKAPQVYTIPPPKEQMAKDKVSLTCMITDFFPEDITVEWQWNGQPAENYKNTQPIMDTDGSYFVYSKLNVQKSNWEAGNTFTCSVLHEGLHNHHTEKSLSHSPGK light: QIVLTQSPAIMSASPGEKVTMTCSASSSVNYMHWYQQKSGTSPKRWIYDTSKLASGVPARFSGSGSGTSYSLTISSMEAEDTATYYCQQWNSNPLTFGAGTKLELKRADAAPTVSIFPPSSEQLTSGGASVVCFLNNFYPKDINVKWKIDGSERQNGVLNSWTDQDSKDSTYSMSSTLTLTKDEYERHNSYTCEATHKTSTSPIVKSFNRNEC
